Columns and labels:
c-Src SH2 = test: SH2 binding enrichment of the phosphorylated peptide, bacterial display (enrichment ratio); higher = better substrate or ligand; peptides without Tyr show the background
Grb2 SH2 = Grb2 SH2 (UniProt P62993); test: as above
SHP2-C SH2 = test: as above
Fyn = Fyn (UniProt P06241); test: phosphorylation enrichment, bacterial display (enrichment ratio); higher = better substrate or ligand; peptides without Tyr show the background
MERTK = MERTK (UniProt Q12866); test: as above
EPHB2 = EPHB2 (UniProt P29323); test: as above
Hck = Hck (UniProt P08631); test: as above
Jak2 = Jak2 (UniProt O60674); test: as above
c-Src = test: as above
c-Abl (mouse) = test: as above
AncSZ = test: as above
Fer (mouse) = test: as above
Fes = Fes (UniProt P07332); test: as above
FGFR3 = FGFR3 (UniProt P22607); test: as above
FGFR1 = FGFR1 (UniProt P11362); test: as above
EPHB1 = EPHB1 (UniProt P54762); test: as above
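Wherever SH2 binding enrichment of the phosphorylated peptide, bacterial display is given: peptide library displayed on the E. coli surface as eCPX fusions, selected cells deep-sequenced, score is each peptide's frequency after selection divided by its frequency in the input.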
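Wherever phosphorylation enrichment, bacterial display is given: 11-residue human phosphosite peptides and single-mutation variants displayed on the E. coli surface, counted by deep sequencing, each peptide's frequency after selection divided by its frequency in the unselected input library; frequency after pTyr selection over input frequency; kinase dosed for 20-30% of maximal phosphorylation in three min.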

Sequence of FGFR3 (P22607 whole entry, looked up): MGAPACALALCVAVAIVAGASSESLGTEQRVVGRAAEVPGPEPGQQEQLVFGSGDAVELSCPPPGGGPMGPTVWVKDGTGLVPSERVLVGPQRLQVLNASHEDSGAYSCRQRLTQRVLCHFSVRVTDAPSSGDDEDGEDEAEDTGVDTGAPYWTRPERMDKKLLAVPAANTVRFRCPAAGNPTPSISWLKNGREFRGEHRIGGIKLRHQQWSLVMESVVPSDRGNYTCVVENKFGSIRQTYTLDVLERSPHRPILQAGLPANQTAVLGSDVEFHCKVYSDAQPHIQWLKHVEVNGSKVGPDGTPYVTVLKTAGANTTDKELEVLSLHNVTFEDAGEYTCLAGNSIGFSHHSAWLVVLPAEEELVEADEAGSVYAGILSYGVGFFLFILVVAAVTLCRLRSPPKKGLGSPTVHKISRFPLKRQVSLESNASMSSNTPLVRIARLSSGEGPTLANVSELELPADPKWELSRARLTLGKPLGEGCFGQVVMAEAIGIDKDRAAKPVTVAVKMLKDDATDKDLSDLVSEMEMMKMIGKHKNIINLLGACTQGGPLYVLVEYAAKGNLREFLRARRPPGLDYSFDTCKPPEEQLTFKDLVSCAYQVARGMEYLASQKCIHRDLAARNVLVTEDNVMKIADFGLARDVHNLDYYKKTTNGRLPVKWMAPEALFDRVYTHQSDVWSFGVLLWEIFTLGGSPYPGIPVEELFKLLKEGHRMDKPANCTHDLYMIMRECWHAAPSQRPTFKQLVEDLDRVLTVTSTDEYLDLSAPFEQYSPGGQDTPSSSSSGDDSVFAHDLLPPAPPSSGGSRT
Sequence of EPHB2 (P29323 whole entry, looked up): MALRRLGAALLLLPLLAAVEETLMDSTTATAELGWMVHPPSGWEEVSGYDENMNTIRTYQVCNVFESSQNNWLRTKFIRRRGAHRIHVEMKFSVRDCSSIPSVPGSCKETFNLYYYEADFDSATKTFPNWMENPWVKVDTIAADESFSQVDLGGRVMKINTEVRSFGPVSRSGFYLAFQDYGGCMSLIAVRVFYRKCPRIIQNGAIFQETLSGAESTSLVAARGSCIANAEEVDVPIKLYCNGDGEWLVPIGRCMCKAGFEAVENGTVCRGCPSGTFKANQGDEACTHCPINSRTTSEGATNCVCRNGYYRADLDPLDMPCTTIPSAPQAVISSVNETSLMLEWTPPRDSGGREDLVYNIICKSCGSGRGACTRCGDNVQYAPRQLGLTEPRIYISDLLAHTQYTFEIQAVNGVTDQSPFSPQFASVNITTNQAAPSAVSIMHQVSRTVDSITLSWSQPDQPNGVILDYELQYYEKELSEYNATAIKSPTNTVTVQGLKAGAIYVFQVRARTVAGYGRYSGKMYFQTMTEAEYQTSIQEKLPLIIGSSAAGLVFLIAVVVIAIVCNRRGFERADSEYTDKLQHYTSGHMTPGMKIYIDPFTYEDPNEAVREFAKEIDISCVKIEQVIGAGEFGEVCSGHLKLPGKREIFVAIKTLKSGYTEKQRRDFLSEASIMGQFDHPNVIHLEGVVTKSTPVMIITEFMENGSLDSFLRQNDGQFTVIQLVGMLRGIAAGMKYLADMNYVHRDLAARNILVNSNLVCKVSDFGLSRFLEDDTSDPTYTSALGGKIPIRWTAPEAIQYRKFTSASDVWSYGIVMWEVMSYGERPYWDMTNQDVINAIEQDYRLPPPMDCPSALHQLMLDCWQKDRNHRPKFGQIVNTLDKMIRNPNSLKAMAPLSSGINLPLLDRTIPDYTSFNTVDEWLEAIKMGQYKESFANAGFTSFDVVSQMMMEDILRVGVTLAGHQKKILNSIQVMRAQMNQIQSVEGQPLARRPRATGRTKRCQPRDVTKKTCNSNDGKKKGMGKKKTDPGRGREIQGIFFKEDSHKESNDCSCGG
Sequence of Hck (P08631 whole entry, looked up): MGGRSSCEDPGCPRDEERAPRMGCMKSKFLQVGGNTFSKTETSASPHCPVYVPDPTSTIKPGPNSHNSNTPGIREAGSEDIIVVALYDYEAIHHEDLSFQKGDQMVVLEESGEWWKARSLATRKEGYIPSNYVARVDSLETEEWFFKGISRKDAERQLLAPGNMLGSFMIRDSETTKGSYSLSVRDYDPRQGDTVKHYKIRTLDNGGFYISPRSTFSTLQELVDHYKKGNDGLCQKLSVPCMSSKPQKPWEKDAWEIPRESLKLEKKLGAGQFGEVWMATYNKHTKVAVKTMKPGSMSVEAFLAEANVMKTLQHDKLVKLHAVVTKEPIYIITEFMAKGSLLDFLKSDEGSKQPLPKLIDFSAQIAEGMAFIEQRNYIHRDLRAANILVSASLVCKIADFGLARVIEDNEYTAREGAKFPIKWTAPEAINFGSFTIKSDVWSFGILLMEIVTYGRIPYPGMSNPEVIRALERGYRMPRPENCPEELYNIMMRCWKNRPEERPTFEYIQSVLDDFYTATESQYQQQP
Sequence of Fes (P07332 whole entry, looked up): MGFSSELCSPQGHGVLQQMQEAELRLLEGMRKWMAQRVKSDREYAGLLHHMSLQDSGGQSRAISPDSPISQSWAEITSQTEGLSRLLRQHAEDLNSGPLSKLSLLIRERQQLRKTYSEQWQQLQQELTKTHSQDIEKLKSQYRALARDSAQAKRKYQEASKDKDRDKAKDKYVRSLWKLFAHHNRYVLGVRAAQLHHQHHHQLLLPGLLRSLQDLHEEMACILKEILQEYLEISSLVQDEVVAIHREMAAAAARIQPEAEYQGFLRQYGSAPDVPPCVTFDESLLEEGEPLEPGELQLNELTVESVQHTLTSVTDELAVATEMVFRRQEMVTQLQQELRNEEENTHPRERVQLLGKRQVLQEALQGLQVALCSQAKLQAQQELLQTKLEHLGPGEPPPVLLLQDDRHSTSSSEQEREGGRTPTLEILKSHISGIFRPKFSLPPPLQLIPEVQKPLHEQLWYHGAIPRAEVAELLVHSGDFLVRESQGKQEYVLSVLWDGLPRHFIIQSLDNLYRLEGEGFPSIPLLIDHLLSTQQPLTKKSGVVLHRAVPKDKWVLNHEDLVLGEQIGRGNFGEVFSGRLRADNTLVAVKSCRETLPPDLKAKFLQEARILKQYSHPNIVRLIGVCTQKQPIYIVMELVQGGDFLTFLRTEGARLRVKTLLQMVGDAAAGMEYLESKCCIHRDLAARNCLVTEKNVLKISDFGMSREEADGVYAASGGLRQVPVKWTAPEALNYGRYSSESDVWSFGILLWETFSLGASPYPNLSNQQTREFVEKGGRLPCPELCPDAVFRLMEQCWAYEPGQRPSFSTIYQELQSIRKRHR
Sequence of Grb2 SH2 (P62993 whole entry, looked up): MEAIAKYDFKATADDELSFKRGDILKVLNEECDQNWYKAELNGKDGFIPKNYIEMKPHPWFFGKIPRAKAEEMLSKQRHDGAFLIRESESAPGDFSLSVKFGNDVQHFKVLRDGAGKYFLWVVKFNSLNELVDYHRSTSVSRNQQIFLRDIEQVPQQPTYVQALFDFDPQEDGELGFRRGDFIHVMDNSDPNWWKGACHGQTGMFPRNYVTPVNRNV
Sequence of MERTK (Q12866 whole entry, looked up): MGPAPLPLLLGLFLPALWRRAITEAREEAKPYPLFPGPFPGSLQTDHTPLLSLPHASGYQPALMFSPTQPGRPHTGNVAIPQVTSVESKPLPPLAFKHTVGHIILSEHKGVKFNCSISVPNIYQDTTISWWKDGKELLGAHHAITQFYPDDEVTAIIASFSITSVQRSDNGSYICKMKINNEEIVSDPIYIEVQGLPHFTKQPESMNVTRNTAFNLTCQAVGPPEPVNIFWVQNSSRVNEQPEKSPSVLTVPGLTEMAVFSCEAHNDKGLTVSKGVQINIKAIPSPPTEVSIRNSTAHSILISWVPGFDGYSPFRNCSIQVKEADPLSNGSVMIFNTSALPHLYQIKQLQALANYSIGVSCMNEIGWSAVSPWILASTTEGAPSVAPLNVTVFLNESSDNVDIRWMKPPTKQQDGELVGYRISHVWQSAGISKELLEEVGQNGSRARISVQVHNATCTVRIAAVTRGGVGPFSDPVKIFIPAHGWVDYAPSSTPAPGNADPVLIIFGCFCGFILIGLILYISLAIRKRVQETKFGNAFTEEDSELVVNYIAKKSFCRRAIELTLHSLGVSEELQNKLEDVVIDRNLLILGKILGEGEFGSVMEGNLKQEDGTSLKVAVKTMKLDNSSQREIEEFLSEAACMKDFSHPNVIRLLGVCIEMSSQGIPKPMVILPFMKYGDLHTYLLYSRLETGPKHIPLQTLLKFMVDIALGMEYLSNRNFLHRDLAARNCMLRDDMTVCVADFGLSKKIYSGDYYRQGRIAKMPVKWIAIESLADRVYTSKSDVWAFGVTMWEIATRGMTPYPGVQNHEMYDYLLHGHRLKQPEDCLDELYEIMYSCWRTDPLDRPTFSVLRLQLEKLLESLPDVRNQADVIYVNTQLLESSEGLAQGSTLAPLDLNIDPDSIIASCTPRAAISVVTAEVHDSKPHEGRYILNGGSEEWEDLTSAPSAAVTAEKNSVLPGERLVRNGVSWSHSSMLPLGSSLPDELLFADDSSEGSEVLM
Sequence of Fyn (P06241 whole entry, looked up): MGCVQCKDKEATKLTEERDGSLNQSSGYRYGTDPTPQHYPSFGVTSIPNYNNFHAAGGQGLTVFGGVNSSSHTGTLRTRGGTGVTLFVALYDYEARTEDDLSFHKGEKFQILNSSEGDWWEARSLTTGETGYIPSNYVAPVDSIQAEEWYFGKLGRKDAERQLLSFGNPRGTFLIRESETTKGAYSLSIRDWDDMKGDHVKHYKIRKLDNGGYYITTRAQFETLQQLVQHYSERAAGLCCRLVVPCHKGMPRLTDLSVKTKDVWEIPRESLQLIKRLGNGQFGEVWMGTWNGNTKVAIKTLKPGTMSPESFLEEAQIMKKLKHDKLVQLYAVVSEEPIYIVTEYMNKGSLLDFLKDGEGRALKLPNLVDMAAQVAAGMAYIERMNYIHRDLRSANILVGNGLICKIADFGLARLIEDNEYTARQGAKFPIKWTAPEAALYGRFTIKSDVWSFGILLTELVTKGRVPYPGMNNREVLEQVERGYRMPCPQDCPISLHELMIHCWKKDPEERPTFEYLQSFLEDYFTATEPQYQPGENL

Sequence | SH2 binding enrichment (c-Src SH2) | SH2 binding enrichment (Grb2 SH2) | SH2 binding enrichment (SHP2-C SH2) | phosphorylation enrichment (Fyn) | phosphorylation enrichment (MERTK) | phosphorylation enrichment (EPHB2) | phosphorylation enrichment (Hck) | phosphorylation enrichment (Jak2) | phosphorylation enrichment (c-Src) | phosphorylation enrichment (c-Abl (mouse)) | phosphorylation enrichment (AncSZ) | phosphorylation enrichment (Fer (mouse)) | phosphorylation enrichment (Fes) | phosphorylation enrichment (FGFR3) | phosphorylation enrichment (FGFR1) | phosphorylation enrichment (EPHB1)
EAVLHYKHQNQ [MTOR_Y1804] | 0.677 | 0.904 | 0.549 | 0.428 | 0.363 | 0.403 | 0.37 | 0.641 | 0.364 | 0.589 | 0.632 | 0.492 | 0.799 | 0.453 | 0.338 | 0.405
ADARMYGVLPW [PLP1_Y207] | 0.443 | 1.05 | 0.7 | 9.58 | 3.38 | 2.48 | 9.33 | 0.7 | 6.65 | 1.24 | 0.793 | 0.594 | 0.84 | 0.545 | 0.511 | 0.945
SVTCTYYPALN [TP53_Y126_S127Y] | 0.373 | 0.68 | 0.693 | 0.48 | 0.412 | 0.617 | 0.592 | 1.36 | 0.575 | 1.01 | 1.52 | 0.556 | 1.36 | 0.831 | 0.499 | 0.645
FSAPNCCFRCG [PPP2CA_Y265_Y265C_YF] | 0.585 | 0.931 | 0.751 | 0.458 | 0.486 | 0.461 | 0.479 | 0.833 | 0.448 | 0.658 | 0.856 | 0.48 | 0.974 | 0.663 | 0.458 | 0.559
PSSNLYFRCLT [CNGA3_Y168_W171C_YF] | 0.379 | 0.75 | 0.636 | 0.707 | 0.808 | 0.809 | 0.88 | 1.66 | 0.48 | 0.967 | 1.5 | 0.694 | 1.63 | 1.03 | 1.19 | 0.828
SKQGKYLNWDA [ATM_Y54] | 0.653 | 6.01 | 0.82 | 0.396 | 0.399 | 0.507 | 0.427 | 0.666 | 0.445 | 0.491 | 0.79 | 0.454 | 0.856 | 0.527 | 0.437 | 0.384
DRTVHYVDEKG [IFT140_Y216_G212R] | 0.503 | 0.979 | 0.916 | 0.429 | 0.393 | 0.436 | 0.441 | 0.597 | 0.341 | 0.46 | 0.666 | 0.368 | 0.742 | 0.515 | 0.413 | 0.431
ISKTWYSAEQF [CD207_Y217_P213S] | 0.689 | 0.822 | 0.781 | 0.532 | 7.68 | 1.8 | 0.481 | 0.604 | 0.522 | 0.585 | 0.793 | 0.521 | 0.837 | 0.757 | 0.605 | 1.84
PVDNLYAEPAV [PRPS1_Y146] | 0.671 | 1.04 | 0.63 | 1.96 | 6.34 | 9.31 | 3.99 | 1.02 | 1.56 | 8.54 | 2.52 | 4.64 | 1.31 | 0.986 | 0.61 | 5.2
SKEPYYVRCIK [MYO1D_Y586] | 0.498 | 0.748 | 0.674 | 0.417 | 0.403 | 0.511 | 0.405 | 1 | 0.451 | 0.705 | 1.06 | 0.501 | 0.966 | 0.669 | 0.58 | 0.566

— the supplement of paper PMC10065799, “High-throughput profiling of sequence recognition by tyrosine kinases and SH2 domains using bacterial peptide display” (eLife, 2023)
